According to patent US11260115B1, “Peptides and combination of peptides for use in immunotherapy against CLL and other cancers” (immatics biotechnologies GmbH, priority 2015, dated 2022):

Biological target: HLA-A*02:01 (Homo sapiens, UniProt P04439, D140Y/D185E/D98H/E176V/E277Q/G131W/G231S/I119V/I121R/I166T/I218V/L300P/L318F/N151K/N90K/P208A/P217A/Q86G/Q94H/R138H/R169H/T345S)
Experiment: MHC binding assay (UV-ligand exchange, β2m ELISA, peptide exchange yield)
Settings: binding to HLA-A*02:01
How it was run: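 Peptide-HLA-A*02:01 complexes formed by UV-mediated exchange of a photocleavable ligand; exchange yield measured by streptavidin-capture ELISA detecting β2m with HRP anti-β2m, TMB read at 450 nm. Refolded monomer standards 15-500 ng/ml; samples diluted 100-fold.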

| Substance | Peptide Exchange (MHC class I binding score, peptide exchange yield) |
| --- | --- |
| 243 (ILPTLEKELFL; listed as Homo sapiens) [compound 243] | “+++” (>50 = +++) |
| 244 (ILQALAVHL; listed as Homo sapiens) [compound 244] | “+++” (>50 = +++) |
| 246 (KLDETGVAL; listed as Homo sapiens) [compound 246] | “++” (>20% = ++) |
| 247 (KLKDRLPSI; listed as Homo sapiens) [compound 247] | “++” (>20% = ++) |
| 248 (KTVEPPISQV; listed as Homo sapiens) [compound 248] | “++” (>20% = ++) |
| 249 (LLPTGVFQV; listed as Homo sapiens) [compound 249] | “+++” (>50 = +++) |
| 251 (LLYDNVPGA; listed as Homo sapiens) [compound 251] | “+++” (>50 = +++) |
| 252 (NLLDPGSSYLL; listed as Homo sapiens) [compound 252] | “+++” (>50 = +++) |
| 253 (NLWSVDGEVTV; listed as Homo sapiens) [compound 253] | “+++” (>50 = +++) |
| 254 (QLIPKLIFL; listed as Homo sapiens) [compound 254] | “+++” (>50 = +++) |
| 255 (YLFEEAISM; listed as Homo sapiens) [compound 255] | “+++” (>50 = +++) |
| 256 (QLLPVSNVVSV; listed as Homo sapiens) [compound 256] | “+++” (>50 = +++) |
| 258 (RLDYITAEI; listed as Homo sapiens) [compound 258] | “+++” (>50 = +++) |
| 260 (SLDDVEGMSV; listed as Homo sapiens) [compound 260] | “+++” (>50 = +++) |
| 262 (SLWNAGTSV; listed as Homo sapiens) [compound 262] | “+++” (>50 = +++) |
| 263 (SQWEDIHVV; listed as Homo sapiens) [compound 263] | “+++” (>50 = +++) |
| 264 (TILDYINVV; listed as Homo sapiens) [compound 264] | “+++” (>50 = +++) |
| 266 (TLLDQLDTQL; listed as Homo sapiens) [compound 266] | “++” (>20% = ++) |
| 267 (TLLDWQDSL; listed as Homo sapiens) [compound 267] | “+++” (>50 = +++) |
| 268 (TLLQVFHLL; listed as Homo sapiens) [compound 268] | “+++” (>50 = +++) |
| 269 (TLTDEQFLV; listed as Homo sapiens) [compound 269] | “++” (>20% = ++) |
| 270 (TVLPVPPLSV; listed as Homo sapiens) [compound 270] | “+++” (>50 = +++) |
| 273 (VLGEYSYLL; listed as Homo sapiens) [compound 273] | “+++” (>50 = +++) |

| Substance | Peptide Exchange (MHC class I binding score, peptide exchange yield) |
| --- | --- |
| 274 (VLLEYHIAYL; listed as Homo sapiens) [compound 274] | “+++” (>50 = +++) |
| 279 (YMAPEVVEA; listed as Homo sapiens) [compound 279] | “+++” (>50 = +++) |
| 280 (YTLDSLYWSV; listed as Homo sapiens) [compound 280] | “+++” (>50 = +++) |
| 282 (LLRDGIELV; listed as Homo sapiens) [compound 282] | “+++” (>50 = +++) |
| 283 (ILQPMDIHV; listed as Homo sapiens) [compound 283] | “+++” (>50 = +++) |
| 284 (LLSAAEPVPA; listed as Homo sapiens) [compound 284] | “++” (>20% = ++) |
| 285 (GVATAGCVNEV; listed as Homo sapiens) [compound 285] | “++++” (>75% = ++++) |
| 287 (FLWEEKFNSL; listed as Homo sapiens) [compound 287] | “++++” (>75% = ++++) |
| 289 (ILEEQPMDMLL; listed as Homo sapiens) [compound 289] | “+++” (>50 = +++) |
| 291 (ILLNEDDLVTI; listed as Homo sapiens) [compound 291] | “+++” (>50 = +++) |
| 292 (AAALIIHHV; listed as Homo sapiens) [compound 292] | “+++” (>50 = +++) |
| 293 (ALDIMIPMV; listed as Homo sapiens) [compound 293] | “+++” (>50 = +++) |
| 294 (ALLDQLHTLL; listed as Homo sapiens) [compound 294] | “++++” (>75% = ++++) |
| 297 (FLVEPQEDTRL; listed as Homo sapiens) [compound 297] | “+++” (>50 = +++) |
| 298 (IILPVEVEV; listed as Homo sapiens) [compound 298] | “+++” (>50 = +++) |
| 299 (ILEENIPVL; listed as Homo sapiens) [compound 299] | “+++” (>50 = +++) |
| 303 (ILSQPTPSL; listed as Homo sapiens) [compound 303] | “+++” (>50 = +++) |
| 306 (VVAEELENV; listed as Homo sapiens) [compound 306] | “++” (>20% = ++) |
| 308 (SLYDVSRMYV; listed as Homo sapiens) [compound 308] | “++++” (>75% = ++++) |
| 309 (ILYGTQFVL; listed as Homo sapiens) [compound 309] | “+++” (>50 = +++) |
| 310 (LLSTLHLLV; listed as Homo sapiens) [compound 310] | “+++” (>50 = +++) |
| 311 (LLVDVEPKV; listed as Homo sapiens) [compound 311] | “+++” (>50 = +++) |
| 313 (LMADLEGLHL; listed as Homo sapiens) [compound 313] | “+++” (>50 = +++) |

Continued, values first:

| Peptide Exchange (MHC class I binding score, peptide exchange yield) | Substance |
| --- | --- |
| “++++” (>75% = ++++) | 245 (KIMDYSLLLGV; listed as Homo sapiens) [compound 245] |
| “+++” (>50 = +++) | 250 (LLVQEPDGLMV; listed as Homo sapiens) [compound 250] |
| “+++” (>50 = +++) | 259 (RLLDEQFAVL; listed as Homo sapiens) [compound 259] |
| “+++” (>50 = +++) | 261 (SLVEAQGWLV; listed as Homo sapiens) [compound 261] |
| “+++” (>50 = +++) | 265 (TLLADDLEIKL; listed as Homo sapiens) [compound 265] |
| “++” (>20% = ++) | 271 (VIRNIVEAA; listed as Homo sapiens) [compound 271] |
| “+++” (>50 = +++) | 272 (VLDELPPLI; listed as Homo sapiens) [compound 272] |
| “+++” (>50 = +++) | 275 (VLLFIEHSV; listed as Homo sapiens) [compound 275] |
| “+++” (>50 = +++) | 276 (VLNDGAPNV; listed as Homo sapiens) [compound 276] |
| “++” (>20% = ++) | 277 (VMILKLPFL; listed as Homo sapiens) [compound 277] |
| “+++” (>50 = +++) | 278 (YLDDLLPKL; listed as Homo sapiens) [compound 278] |
| “+++” (>50 = +++) | 286 (FLLEDLSQKL; listed as Homo sapiens) [compound 286] |
| “+++” (>50 = +++) | 288 (GLAESTGLLAV; listed as Homo sapiens) [compound 288] |
| “+++” (>50 = +++) | 295 (ALLQKLQQL; listed as Homo sapiens) [compound 295] |
| “++” (>20% = ++) | 296 (FIAPTGHSL; listed as Homo sapiens) [compound 296] |
| “+++” (>50 = +++) | 300 (ILLNPAYDVYL; listed as Homo sapiens) [compound 300] |
| “+++” (>50 = +++) | 301 (AASPIITLV; listed as Homo sapiens) [compound 301] |
| “+++” (>50 = +++) | 302 (ILQDLTFVHL; listed as Homo sapiens) [compound 302] |
| “+” (>10% = +) | 304 (LAIVPVNTL; listed as Homo sapiens) [compound 304] |
| “+++” (>50 = +++) | 305 (LLFPQIEGIKI; listed as Homo sapiens) [compound 305] |
| “+++” (>50 = +++) | 312 (LLYNSTDPTL; listed as Homo sapiens) [compound 312] |
